Target: amatuximab, chimerized monoclonal IgG1 antibody targeting mesothelin (unlabelled) (human)
Assay: ELISA

CA125 tumor-shed antigen, soluble (sCA125), patient-derived (from UniProt Q8WXI7 1-14507) (natural protein)
percent decrease of CD16a binding to amatuximab: 50%
percent reduction of amatuximab binding to CD32a: 29%
